Experimental data reported in doi:10.1101/2020.05.11.089193 (bioRxiv, 2020).
Read-outs that look alike come from different tables or passages of the source.

Assays:
[1] = target: the molecule itself; assay: cryo-EM structure
[2] = target: the molecule itself; assay: cryo-EM structure; remark: listed apart in the source

Protein	stoichiometry N [1]	stoichiometry N [2]
Flavobacterium johnsoniae GldL (natural protein, UniProt Q5EGM4 1-215, looked up) MALLSKKVMNFAYGMGAAVVIVGALFKITHFEIGPLTGTVMLSIGLLTEALIFALSAFEPVEDELDWTLVYPELANGQARKKEAKAETATDAQGLLSQKLDAMLKEAKVDGELMASLGNSIKNFEGAAKAISPTVDSIAGQKKYAEEMSMAAAQMESLNSLYKVQLESASRNAQANSEIAENAAKLKEQMASMTANIASLNSVYGGMLSAMSNKG	5	–
Porphyromonas gingivalis ATCC 33277 PorM (natural protein, UniProt B2RLE8 1-516, looked up) MAVGSNGNANRQKMINLMYLVFIAMMALNVSSEVLDGFDKVDKSLTSSIDGSDKRNNLVLSELNTAYRTNPEKVKVWYERSLVLQKEADSLCTFIDDLKLAIARESDGKDAKVNDIRRKDNLDASSVVMLNPINGKGSTLRKEVDKFRELVATLMTDKAKLKLIEQALNTESGTKGKSWESSLFENMPTVAAITLLTKLQSDVRYAQGEVLADLVKSVDVGDYRVNSITAQVIPQSQIVMSGDTYKANIVLSSVDTTQRPDVFVNGKLLSPENMGLFTATAGAPGTYPVKGYIEMMGNDGVKIRRDFESEYFVTEPMASVAPTMMNVLYAGIDNPINIAVPGVAQQNVSATINNGTLTRRGNLWIARPTKVGSEAIISVTAQSGGRTIQMAKTTLRVRALPDPLPYIEYKDVQGNTKRFKGGRLGKREILAAGGIKAALDDDLLEVNYTVVKFQLVFYDSMGNSIPEVSDGASFSERQKRQIQNLGKGKRFYVTEVIARGPDGIERKIPAIEVIVN	–	2
Flavobacterium johnsoniae GldM C-terminally truncated after the first folded periplasmic domain (first 225 amino acids) (domain or fragment, UniProt Q5EGM3 1-225, looked up) MAGGKLTPRQKMINLMYLVFIAMLAMNVSKEVISAFGLMNEKFEAANTSSVTTNESLLTSLDQKAAEAKGEFAKAAETAHKVQAASKEFYDYIGTLKTQAVKGFEVDKETGKMPYEAMDRGDNIDDWFTGDGYTKKGNEIIAKIEKYKSDIKAALGTDKKYAGIISEVEKKFDVSDVKNKEGIKEKYLAYHFKGFPAIASAAKLSAWQNDVKKTEADVYNSALGK	2	–
